Test system: Arabidopsis thaliana T1 plants
Assay: Topramezone tolerance of transgenic Arabidopsis thaliana T1 plants (pesticide damage grade by bleached leaf area, score, resistance evaluation)
Type: in vivo
Parameters: score: scale not given here
Conditions: for Resistance Grade / score / Grade 0 / Grade 1 / Grade 2 / Grade 3: HPPD from Avena sativa source; for Grade 0 / Grade 1 / Grade 2 / Grade 3: number of plants; for Resistance evaluation: HPPD F372G mutants, Table 6
Outline: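 Eighteen days after sowing, wild-type and HPPD-transgenic T1 Arabidopsis receive a topramezone spray at 1×, 2× or 4× field rate (25–100 g ai/ha) or water. Seven days later each plant is graded by its proportion of bleached leaf area.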

Molecule | Resistance Grade (topramezone 25 g ai/ha (1x)) | score (topramezone 25 g ai/ha (1x)) | Grade 0 (topramezone 25 g ai/ha (1x)) | Grade 1 (topramezone 25 g ai/ha (1x)) | Grade 2 (topramezone 25 g ai/ha (1x)) | Grade 3 (topramezone 25 g ai/ha (1x)) | Resistance Grade (topramezone 50 g ai/ha (2x)) | score (topramezone 50 g ai/ha (2x)) | Grade 0 (topramezone 50 g ai/ha (2x)) | Grade 1 (topramezone 50 g ai/ha (2x)) | Grade 2 (topramezone 50 g ai/ha (2x)) | Grade 3 (topramezone 50 g ai/ha (2x)) | Resistance Grade (topramezone 100 g ai/ha (4x)) | score (topramezone 100 g ai/ha (4x)) | Grade 0 (topramezone 100 g ai/ha (4x)) | Grade 1 (topramezone 100 g ai/ha (4x)) | Grade 2 (topramezone 100 g ai/ha (4x)) | Grade 3 (topramezone 100 g ai/ha (4x)) | Resistance evaluation (topramezone 25 g ai/ha (1x)) | Resistance evaluation (topramezone 100 g ai/ha (4x))
F372 deletion (protein, listed as Avena sativa, AsHPPD Amido Acid Sequence) MPPTPATATGAAAAAVTPEHAARSFPRVVRVNPRSDRFPVLSFHHVELWCADAASAAGRFSFALGAPLAARSDLSTGNSAHASLLLRSGALAFLFTAPYAPPPQEAATAAATASIPSFSADAARTFAAAHGLAVRSVGVRVADAAEAFRVSVAGGARPAFAPADLGHGFGLAEVELYGDVVLRFVSYPDETDLPFLPGFERVSSPGAVDYGLTRFDHVVGNVPEMAPVIDYMKGFLGFHEFAEFTAEDVGTTESGLNSVVLANNSEAVLLPLNEPVHGTKRRSQIQTYLEYHGGPGVQHIALASNDVLRTLREMRARTPMGGFEFMAPPQAKYYEGVRRIAGDVLSEEQIKECQELGVLVDRDDQGVLLQITKPVGDRPTFFLEMIQRIGCMEKDEVGQEYQKGGCGGFGKGNFSELFKSIEDYEKSLEVKQSVVAQKS | Highly resistant | 0 | 20 | 0 | 0 | 0 | Highly resistant | 0 | 20 | 0 | 0 | 0 | Highly resistant | 3 | 18 | 2 | 0 | 0 |  | 
BdHPPDm-F372G: Brachypodium distachyon HPPD mutant F372G, SEQ ID NO: 303 (protein, BdHPPDm-F372G Amino Acid Sequence) MPPPATTAAPAAAAVTPEHARPPRRVARVNPRSDRFSALSFHHVELWCADAASAAGRFSFALGAPPAARSDLSTGNSAHASILLRSGSLAFLFTAPYAPSPASDSAASIPSFSASAARQFTADHGGLAVRAVALRVSSASDAFHASVSAGARPSFPPADLGQGFALAEVELYGDVVLRFISHPDENTEIPFLPGFESVSNPGASTYGLTRFDHVVGNVPSLAPVAAYIAGFTGFHEFAEFTAEDVGTADSGLNSVVLANNSERVLLPLNEPVHGTKRRSQIQTYLDHHGGPGVQHIALASDDVLRTLREMRARSAMGGFEFLAPPPPNYYDGVRRRAGDVLSEAQIKECQELGVLVDRDDQGVLLQIGTKPVGDRPTLFLEMIQRIGCMEKDEIGQEQQKGGCGGFGKGNFSELFRSIEEYEKSLEAKQSAVVQES |  |  |  |  |  |  |  |  |  |  |  |  |  |  |  |  |  |  | Highly resistant | Moderately resistant
F372C (protein, listed as Avena sativa, AsHPPD Amido Acid Sequence) MPPTPATATGAAAAAVTPEHAARSFPRVVRVNPRSDRFPVLSFHHVELWCADAASAAGRFSFALGAPLAARSDLSTGNSAHASLLLRSGALAFLFTAPYAPPPQEAATAAATASIPSFSADAARTFAAAHGLAVRSVGVRVADAAEAFRVSVAGGARPAFAPADLGHGFGLAEVELYGDVVLRFVSYPDETDLPFLPGFERVSSPGAVDYGLTRFDHVVGNVPEMAPVIDYMKGFLGFHEFAEFTAEDVGTTESGLNSVVLANNSEAVLLPLNEPVHGTKRRSQIQTYLEYHGGPGVQHIALASNDVLRTLREMRARTPMGGFEFMAPPQAKYYEGVRRIAGDVLSEEQIKECQELGVLVDRDDQGVLLQICTKPVGDRPTFFLEMIQRIGCMEKDEVGQEYQKGGCGGFGKGNFSELFKSIEDYEKSLEVKQSVVAQKS | Highly resistant | 0 | 20 | 0 | 0 | 0 | Highly resistant | 3 | 18 | 2 | 0 | 0 | Moderately resistant | 27 | 8 | 8 | 4 | 0 |  | 
F372E (protein, listed as Avena sativa, AsHPPD Amido Acid Sequence) MPPTPATATGAAAAAVTPEHAARSFPRVVRVNPRSDRFPVLSFHHVELWCADAASAAGRFSFALGAPLAARSDLSTGNSAHASLLLRSGALAFLFTAPYAPPPQEAATAAATASIPSFSADAARTFAAAHGLAVRSVGVRVADAAEAFRVSVAGGARPAFAPADLGHGFGLAEVELYGDVVLRFVSYPDETDLPFLPGFERVSSPGAVDYGLTRFDHVVGNVPEMAPVIDYMKGFLGFHEFAEFTAEDVGTTESGLNSVVLANNSEAVLLPLNEPVHGTKRRSQIQTYLEYHGGPGVQHIALASNDVLRTLREMRARTPMGGFEFMAPPQAKYYEGVRRIAGDVLSEEQIKECQELGVLVDRDDQGVLLQIETKPVGDRPTFFLEMIQRIGCMEKDEVGQEYQKGGCGGFGKGNFSELFKSIEDYEKSLEVKQSVVAQKS | Poorly resistant | 60 | 0 | 8 | 8 | 4 | Poorly resistant | 63 | 0 | 6 | 10 | 4 | Non-resistant | 97 | 0 | 0 | 2 | 18 |  | 
F372M (protein, listed as Avena sativa, AsHPPD Amido Acid Sequence) MPPTPATATGAAAAAVTPEHAARSFPRVVRVNPRSDRFPVLSFHHVELWCADAASAAGRFSFALGAPLAARSDLSTGNSAHASLLLRSGALAFLFTAPYAPPPQEAATAAATASIPSFSADAARTFAAAHGLAVRSVGVRVADAAEAFRVSVAGGARPAFAPADLGHGFGLAEVELYGDVVLRFVSYPDETDLPFLPGFERVSSPGAVDYGLTRFDHVVGNVPEMAPVIDYMKGFLGFHEFAEFTAEDVGTTESGLNSVVLANNSEAVLLPLNEPVHGTKRRSQIQTYLEYHGGPGVQHIALASNDVLRTLREMRARTPMGGFEFMAPPQAKYYEGVRRIAGDVLSEEQIKECQELGVLVDRDDQGVLLQIMTKPVGDRPTFFLEMIQRIGCMEKDEVGQEYQKGGCGGFGKGNFSELFKSIEDYEKSLEVKQSVVAQKS | Highly resistant | 0 | 20 | 0 | 0 | 0 | Moderately resistant | 20 | 8 | 12 | 0 | 0 | Poorly resistant | 50 | 2 | 6 | 12 | 0 |  | 
F372K. (protein, listed as Avena sativa, AsHPPD Amido Acid Sequence) MPPTPATATGAAAAAVTPEHAARSFPRVVRVNPRSDRFPVLSFHHVELWCADAASAAGRFSFALGAPLAARSDLSTGNSAHASLLLRSGALAFLFTAPYAPPPQEAATAAATASIPSFSADAARTFAAAHGLAVRSVGVRVADAAEAFRVSVAGGARPAFAPADLGHGFGLAEVELYGDVVLRFVSYPDETDLPFLPGFERVSSPGAVDYGLTRFDHVVGNVPEMAPVIDYMKGFLGFHEFAEFTAEDVGTTESGLNSVVLANNSEAVLLPLNEPVHGTKRRSQIQTYLEYHGGPGVQHIALASNDVLRTLREMRARTPMGGFEFMAPPQAKYYEGVRRIAGDVLSEEQIKECQELGVLVDRDDQGVLLQIKTKPVGDRPTFFLEMIQRIGCMEKDEVGQEYQKGGCGGFGKGNFSELFKSIEDYEKSLEVKQSVVAQKS | Moderately resistant | 33 | 0 | 20 | 0 | 0 | Poorly resistant | 47 | 2 | 8 | 10 | 0 | Non-resistant | 90 | 0 | 0 | 6 | 14 |  | 

From patent US20230212587A1, “Mutant Hydroxyphenylpyruvate Dioxygenase Polypeptide, Encoding Gene Thereof and Use Therefor” (Beijing Dabeinong Biotechnology Co., Ltd., priority 2019, published 2023)
